Source: PMC2811023 (Nucleic Acids Research, 2009)

T1: Staphylococcus aureus GatA (subunit A of the heterotrimeric tRNA-dependent amidotransferase GatCAB) (Staphylococcus aureus, UniProt P63488 1-485)
T1 sequence: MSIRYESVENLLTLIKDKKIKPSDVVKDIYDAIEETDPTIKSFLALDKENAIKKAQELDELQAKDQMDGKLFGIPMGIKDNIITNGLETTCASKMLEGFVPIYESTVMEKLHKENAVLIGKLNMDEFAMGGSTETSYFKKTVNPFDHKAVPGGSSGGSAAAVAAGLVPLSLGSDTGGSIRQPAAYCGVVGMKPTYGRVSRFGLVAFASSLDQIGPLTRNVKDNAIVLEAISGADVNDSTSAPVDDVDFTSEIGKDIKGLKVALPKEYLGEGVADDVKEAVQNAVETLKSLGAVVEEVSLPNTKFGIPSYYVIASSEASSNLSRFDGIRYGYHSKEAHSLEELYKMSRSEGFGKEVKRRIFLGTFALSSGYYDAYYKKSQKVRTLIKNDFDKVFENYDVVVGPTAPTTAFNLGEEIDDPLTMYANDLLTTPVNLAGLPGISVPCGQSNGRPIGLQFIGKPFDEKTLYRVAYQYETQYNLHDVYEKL

B1: Staphylococcus aureus GatB (subunit B of the heterotrimeric tRNA-dependent amidotransferase GatCAB) (enzyme)
chain: MHFETVIGLEVHVELKTDSKMFSPSPAHFGAEPNSNTNVIDLAYPGVLPVVNKRAVDWAMRAAMALNMEIATESKFDRKNYFYPDNPKAYQISQFDQPIGENGYIDIEVDGETKRIGITRLHMEEDAGKSTHKGEYSLVDLNRQGTPLIEIVSEPDIRSPKEAYAYLEKLRSIIQYTGVSDVKMEEGSLRCDANISLRPYGQEKFGTKAELKNLNSFNYVRKGLEYEEKRQEEELLNGGEIGQETRRFDESTGKTILMRVKEGSDDYRYFPEPDIVPLYIDDAWKERVRQTIPELPDERKAKYVNELGLPAYDAHVLTLTKEMSDFFESTIEHGADVKLTSNWLMGGVNEYLNKNQVELLDTKLTPENLAGMIKLIEDGTMSSKIAKKVFPELAAKGGNAKQIMEDNGLVQISDEATLLKFVNEALDNNEQSVEDYKNGKGKAMGFLVGQIMKASKGQANPQLVNQLLKQELDKR
B2: Staphylococcus aureus GatC (subunit C of the heterotrimeric tRNA-dependent amidotransferase GatCAB) (natural protein)
chain: MTKVTREEVEHIANLARLQISPEETEEMANTLESILDFAKQNDSADTEGVEPTYHVLDLQNVLREDKAIKGIPQELALKNAKETEDGQFKVPTIMNEEDA

Key:
[1] = molecular target: T1, Staphylococcus aureus GatA (subunit A …); experiment: crystal structure
[2] = molecular target: B1; experiment: crystal structure

| Binder | binding result [1] | binding result [2] |
| --- | --- | --- |
| B1 | binds |  |
| B2 | binds | binds |
